Test results published in paper PMC5506376.

Tested on: CC(=O)N[C@H]1[C@@H](OP(=O)(O)OP(=O)(O)OC[C@H]2O[C@@H](n3ccc(=O)[nH]c3=O)[C@H](O)[C@@H]2O)O[C@H](C)[C@@H](NC(C)=O)[C@@H]1O
Test: purified protein
Details: Mg2+

Substance: PglC (Campylobacter jejuni subsp. jejuni NCTC 11168 = ATCC 700819)
- Km: 7.2 ± 1.1 µM
